Data reported in the supplement of paper PMC5998384.

Columns and labels:
HeLa Kyoto [1] = assay: solubility in G1/S (NP-40 vs SDS abundance) (log2 ratio); higher = more soluble; details: cell cycle stage: G1/S
HeLa Kyoto [2] = assay: solubility change mitosis vs G1/S (difference of NP-40 vs SDS log2 ratios) (log2 ratio difference); higher = more soluble in mitosis
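Wherever solubility change mitosis vs G1/S (difference of NP-40 vs SDS log2 ratios) is given: synchronized HeLa Kyoto cells (double thymidine block for G1/S, nocodazole release for mitosis), protein amounts in NP-40 versus SDS lysates quantified by mass spectrometry, three biological replicates.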
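Wherever solubility in G1/S (NP-40 vs SDS abundance) is given: HeLa Kyoto cells arrested at G1/S by double thymidine block, proteins quantified by TMT10plex mass spectrometry in mild NP-40 versus SDS extracts, three biological replicates.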

Question: Which “solubility in G1/S (log2)” value (HeLa Kyoto [1]) does the source give for “MLRWTRAWRLPREGLGPHGPSFARVPVAPSSSSGGRGGAEPRPLPLSYRLLDGEAALPAVVFLHGLFGSKTNFNSIAKILAQQTGRRVLTVDARNHGDSPHSPDMSYEIMSQDLQDLLPQLGLVPCVVVGHSMGGKTAMLLALQRPELVERLIAVDISPVESTGVSHFATYVAAMRAINIADELPRSRARKLADEQLSSVIQDMAVRQHLLTNLVEVDGRFVWRVNLDALTQHLDKILAFPQRQESYLGPTLFLLGGNSQFVHPSHHPEIMRLFPRAQMQTVPNAGHWIHADRPQDFIAAIRGFLV [ABHD11]” here?
Answer: The value was 0.492.

Question: And the “solubility change mitosis (log2)” value (HeLa Kyoto [2])?
Answer: The value was 0.0439.

Question: How did the “solubility in G1/S (log2)” value (HeLa Kyoto [1]) turn out when “MMAGCGEIDHSINMLPTNRKANESCSNTAPSLTVPECAICLQTCVHPVSLPCKHVFCYLCVKGASWLGKRCALCRQEIPEDFLDKPTLLSPEELKAASRGNGEYAWYYEGRNGWWQYDERTSRELEDAFSKGKKNTEMLIAGFLYVADLENMVQYRRNEHGRRRKIKRDIIDIPKKGVAGLRLDCDANTVNLARESSADGADSVSAQSGASVQPLVSSVRPLTSVDGQLTSPATPSPDASTSLEDSFAHLQLSGDNTAERSHRGEGEEDHESPSSGRVPAPDTSIEETESDASSDSEDVSAVVAQHSLTQQRLLVSNANQTVPDRSDRSGTDRSVAGGGTVSVSVRSRRPDGQCTVTEV [RNF146]” was run?
Answer: Its value is -0.244.

Question: And the “solubility change mitosis (log2)” value (HeLa Kyoto [2])?
Answer: Its value is -0.158.

Question: Which results are given for “MMVESASETIRSAPSGQNGVGSLSGQADGSSGGATGTTASGTGREVTTGADSNGEMSPAELLHFQQQQALQVARQFLLQQASGLSSPGNNDSKQSASAVQVPVSVAMMSPQMLTPQQMQQILSPPQLQALLQQQQALMLQQLQEYYKKQQEQLHLQLLTQQQAGKPQPKEALGNKQLAFQQQLLQMQQLQQQHLLNLQRQGLVSLQPNQASGPLQTLPQAAVCPTDLPQLWKGEGAPGQPAEDSVKQEGLDLTGTAATATSFAAPPKVSPPLSHHTLPNGQPTVLTSRRDSSSHEETPGSHPLYGHGECKWPGCETLCEDLGQFIKHLNTEHALDDRSTAQCRVQMQVVQQLEIQLAKESERLQAMMAHLHMRPSEPKPFSQPLNPVPGSSSFSKVTVSAADSFPDGLVHPPTSAAAPVTPLRPPGLGSASLHGGGPARRRSSDKFCSPISSELAQNHEFYKNADVRPPFTYASLIRQAILETPDRQLTLNEIYNWFTRMFAYFRRNTATWKNAVRHNLSLHKCFVRVENVKGAVWTVDEREYQKRRPPKMTGSPTLVKNMISGLSYGALNASYQAALAESSFPLLNSPGMLNPGSASSLLPLSHDDVGAPVEPLPSNGSSSPPRLSPPQYSHQVQVKEEPAEAEEDRQPGPPLGAPNPSASGPPEDRDLEEELPGEELS [FOXP4]”?
Answer: solubility in G1/S (log2) (HeLa Kyoto [1]): 0.393; solubility change mitosis (log2) (HeLa Kyoto [2]): -0.162

Question: For “MNMIWRNSISCLRLGKVPHRYQSGYHPVAPLGSRILTDPAKVFEHNMWDHMQWSKEEEAAARKKVKENSAVRVLLEEQVKYEREASKYWDTFYKIHKNKFFKDRNWLLREFPEILPVDQKPEEKARESSWDHVKTSATNRFSRMHCPTVPDEKNHYEKSSGSSEGQSKTESDFSNLDSEKHKKGPMETGLFPGSNATFRILEVGCGAGNSVFPILNTLENSPESFLYCCDFASGAVELVKSHSSYRATQCFAFVHDVCDDGLPYPFPDGILDVILLVFVLSSIHPDRTLFI [METTL8]”, which “solubility in G1/S (log2)” value (HeLa Kyoto [1]) is on record?
Answer: The value was -0.312.

Question: And the “solubility change mitosis (log2)” value (HeLa Kyoto [2])?
Answer: Its value is 0.054.

Question: Which results are given for “MNPLTKVKLINELNEREVQLGVADKVSWHSEYKDSAWIFLGGLPYELTEGDIICVFSQYGEIVNINLVRDKKTGKSKGFCFLCYEDQRSTILAVDNFNGIKIKGRTIRVDHVSNYRAPKDSEEIDDVTRQLQEKGCGARTPSPSLSESSEDEKPTKKHKKDKKEKKKKKKEKEKADREVQAEQPSSSSPRRKTVKEKDDTGPKKHSSKNSERAQKSEPREGQKLPKSRTAYSGGAEDLERELKKEKPKHEHKSSSRREAREEKTRIRDRGRSSDAHSSWYNGRSEGRSYRSRSRSRDKSHRHKRARRSRERESSNPSDRWRH [RBMX2]”?
Answer: solubility in G1/S (log2) (HeLa Kyoto [1]): -1.17; solubility change mitosis (log2) (HeLa Kyoto [2]): 0.59

Question: How did the “solubility in G1/S (log2)” value (HeLa Kyoto [1]) turn out when “MNQPQRMAPVGTDKELSDLLDFSMMFPLPVTNGKGRPASLAGAQFGGSGLEDRPSSGSWGSGDQSSSSFDPSRTFSEGTHFTESHSSLSSSTFLGPGLGGKSGERGAYASFGRDAGVGGLTQAGFLSGELALNSPGPLSPSGMKGTSQYYPSYSGSSRRRAADGSLDTQPKKVRKVPPGLPSSVYPPSSGEDYGRDATAYPSAKTPSSTYPAPFYVADGSLHPSAELWSPPGQAGFGPMLGGGSSPLPLPPGSGPVGSSGSSSTFGGLHQHERMGYQLHGAEVNGGLPSASSFSSAPGATYGGVSSHTPPVSGADSLLGSRGTTAGSSGDALGKALASIYSPDHSSNNFSSSPSTPVGSPQGLAGTSQWPRAGAPGALSPSYDGGLHGLQSKIEDHLDEAIHVLRSHAVGTAGDMHTLLPGHGALASGFTGPMSLGGRHAGLVGGSHPEDGLAGSTSLMHNHAALPSQPGTLPDLSRPPDSYSGLGRAGATAAASEIKREEKEDEENTSAADHSEEEKKELKAPRARTSPDEDEDDLLPPEQKAEREKERRVANNARERLRVRDINEAFKELGRMCQLHLNSEKPQTKLLILHQAVSVILNLEQQVRERNLNPKAACLKRREEEKVSGVVGDPQMVLSAPHPGLSEAHNPAGHM [TCF3]” was run?
Answer: Its value is 0.291.

Question: And the “solubility change mitosis (log2)” value (HeLa Kyoto [2])?
Answer: Its value is -0.0342.

Question: Which “solubility in G1/S (log2)” value (HeLa Kyoto [1]) does the source give for “MNRIRIHVLPTNRGRITPVPRSQEPLSCAFTHRPCSHPRLEGQEFCIKHILEDKNAPFKQCSYISTKNGKRCPNAAPKPEKKDGVSFCAEHVRRNALALHAQMKKTNPGPVGETLLCQLSSYAKTELGSQTPESSRSEASRILDEDSWSDGEQEPITVDQTWRGDPDSEADSIDSDQEDPLKHAGVYTAEEVALIMREKLIRLQSLYIDQFKRLQHLLKEKKRRYLHNRKVEHEALGSSLLTGPEGLLAKERENLKRLKCLRRYRQRYGVEALLHRQLKERRMLATDGAAQQAHTTRSSQRCLAFVDDVRCSNQSLPMTRHCLTHICQDTNQVLFKCCQGSEEVPCNKPVPVSLSEDPCCPLHFQLPPQMYKPEQVLSVPDDLEAGPMDLYLSAAELQPTESLPLEFSDDLDVVGDGMQCPPSPLLFDPSLTLEDHLVKEIAEDPVDILGQMQMAGDGCRSQGSRNSEKASAPLSQSGLATANGKPEPTSIS [KANSL2]” here?
Answer: The value was 0.453.

Question: And the “solubility change mitosis (log2)” value (HeLa Kyoto [2])?
Answer: The value was -0.0302.

Question: What does the source list for “MNSRQAWRLFLSQGRGDRWVSRPRGHFSPALRREFFTTTTKEGYDRRPVDITPLEQRKLTFDTHALVQDLETHGFDKTQAETIVSALTALSNVSLDTIYKEMVTQAQQEITVQQLMAHLDAIRKDMVILEKSEFANLRAENEKMKIELDQVKQQLMHETSRIRADNKLDINLERSRVTDMFTDQEKQLMETTTEFTKKDTQTKSIISETSNKIDAEIASLKTLMESNKLETIRYLAASVFTCLAIALGFYRFWK [CCDC90B]”?
Answer: solubility in G1/S (log2) (HeLa Kyoto [1]): 0.144; solubility change mitosis (log2) (HeLa Kyoto [2]): 0.249

Question: Which results are given for “MNSVGEACTDMKREYDQCFNRWFAEKFLKGDSSGDPCTDLFKRYQQCVQKAIKEKEIPIEGLEFMGHGKEKPENSS [TRIAP1]”?
Answer: solubility in G1/S (log2) (HeLa Kyoto [1]): -0.88; solubility change mitosis (log2) (HeLa Kyoto [2]): 0.6

Question: Which results are given for “MNVTSIALRAETWLLAAWHVKVPPMWLEACINWIQEENNNVNLSQAQMNKQVFEQWLLTDLRDLEHPLLPDGILEIPKGELNGFYALQINSLVDVSQPAYSQIQKLRGKNTTNDLVTAEAQVTPKPWEAKPSRMLMLQLTDGIVQIQGMEYQPIPILHSDLPPGTKILIYGNISFRLGVLLLKPENVKVLGGEVDALLEEYAQEKVLARLIGEPDLVVSVIPNNSNENIPRVTDVLDPALGPSDEELLASLDENDELTANNDTSSERCFTTGSSSNTIPTRQSSFEPEFVISPRPKEEPSNLSIHVMDGELDDFSLEEALLLEETVQKEQMETKELQPLTFNRNADRSIERFSHNPNTTNNFSLTCKNGNNNWSEKNVSEQMTNEDKSFGCPSVRDQNRSIFSVHCNVPLAHDFTNKEKNLETDNKIKQTSSSDSHSLNNKILNREVVNYVQKRNSQISNENDCNLQSCSLRSSENSINLSIAMDLYSPPFVYLSVLMASKPKEVTTVKVKAFIVTLTGNLSSSGGIWSITAKVSDGTAYLDVDFVDEILTSLIGFSVPEMKQSKKDPLQYQKFLEGLQKCQRDLIDLCCLMTISFNPSLSKAMVLALQDVNMEHLENLKKRLNK [RMI1]”?
Answer: solubility in G1/S (log2) (HeLa Kyoto [1]): -0.0709; solubility change mitosis (log2) (HeLa Kyoto [2]): 0.0277

Question: How did the “solubility in G1/S (log2)” value (HeLa Kyoto [1]) turn out when “MPAGGRAGSLKDPDVAELFFKDDPEKLFSDLREIGHGSFGAVYFARDVRNSEVVAIKKMSYSGKQSNEKWQDIIKEVRFLQKLRHPNTIQYRGCYLREHTAWLVMEYCLGSASDLLEVHKKPLQEVEIAAVTHGALQGLAYLHSHNMIHRDVKAGNILLSEPGLVKLGDFGSASIMAPANSFVGTPYWMAPEVILAMDEGQYDGKVDVWSLGITCIELAERKPPLFNMNAMSALYHIAQNESPVLQSGHWSEYFRNFVDSCLQKIPQDRPTSEVLLKHRFVLRERPPTVIMDLIQRTKDAVRELDNLQYRKMKKILFQEAPNGPGAEAPEEEEEAEPYMHRAGTLTSLESSHSVPSMSISASSQSSSVNSLADASDNEEEEEEEEEEEEEEEGPEAREMAMMQEGEHTVTSHSSIIHRLPGSDNLYDDPYQPEITPSPLQPPAAPAPTSTTSSARRRAYCRNRDHFATIRTASLVSRQIQEHEQDSALREQLSGYKRMRRQHQKQLLALESRLRGEREEHSARLQRELEAQRAGFGAEAEKLARRHQAIGEKEARAAQAEERKFQQHILGQQKKELAALLEAQKRTYKLRKEQLKEELQENPSTPKREKAEWLLRQKEQLQQCQAEEEAGLLRRQRQYFELQCRQYKRKMLLARHSLDQDLLREDLNKKQTQKDLECALLLRQHEATRELELRQLQAVQRTRAELTRLQHQTELGNQLEYNKRREQELRQKHAAQVRQQPKSLKVRAGQRPPGLPLPIPGALGPPNTGTPIEQQPCSPGQEAVLDQRMLGEEEEAVGERRILGKEGATLEPKQQRILGEESGAPSPSPQKHGSLVDEEVWGLPEEIEELRVPSLVPQERSIVGQEEAGTWSLWGKEDESLLDEEFELGWVQGPALTPVPEEEEEEEEGAPIGTPRDPGDGCPSPDIPPEPPPTHLRPCPASQLPGLLSHGLLAGLSFAVGSSSGLLPLLLLLLLPLLAAQGGGGLQAALLALEVGLVGLGASYLLLCTALHLPSSLFLLLAQGTALGAVLGLSWRRGLMGVPLGLGAAWLLAWPGLALPLVAMAAGGRWVRQQGPRVRRGISRLWLRVLLRLSPMAFRALQGCGAVGDRGLFALYPKTNKDGFRSRLPVPGPRRRNPRTTQHPLALLARVWVLCKGWNWRLARASQGLASHLPPWAIHTLASWGLLRGERPTRIPRLLPRSQRQLGPPASRQPLPGTLAGRRSRTRQSRALPPWR [TAOK2]” was run?
Answer: The value was -0.239.

Question: What about the “solubility change mitosis (log2)” value (HeLa Kyoto [2]) of the same sequence?
Answer: Its value is -0.0236.

Question: “MPALLERPKLSNAMARALHRHIMMERERKRQEEEEVDKMMEQKMKEEQERRKKKEMEERMSLEETKEQILKLEEKLLALQEEKHQLFLQLKKVLHEEEKRRRKEQSDLTTLTSAAYQQSLTVHTGTHLLSMQGSPGGHNRPGTLMAADRAKQMFGPQVLTTRHYVGSAAAFAGTPEHGQFQGSPGGAYGTAQPPPHYGPTQPAYSPSQQLRAPSAFPAVQYLSQPQPQPYAVHGHFQPTQTGFLQPGGALSLQKQMEHANQQTGFSDSSSLRPMHPQALHPAPGLLASPQLPVQMQPAGKSGFAATSQPGPRLPFIQHSQNPRFYHK [GPS2]” was tested. Which “solubility in G1/S (log2)” value (HeLa Kyoto [1]) did it give?
Answer: Its value is 0.416.

Question: What about the “solubility change mitosis (log2)” value (HeLa Kyoto [2]) of the same sequence?
Answer: The value was -0.0529.

Question: Which results are given for “MPAPAATYERVVYKNPSEYHYMKVCLEFQDCGVGLNAAQFKQLLISAVKDLFGEVDAALPLDILTYEEKTLSAILRICSSGLVKLWSSLTLLGSYKGKKCAFRVIQVSPFLLALSGNSRELVLD [RPP14]”?
Answer: solubility in G1/S (log2) (HeLa Kyoto [1]): -0.294; solubility change mitosis (log2) (HeLa Kyoto [2]): 0.0872
